For test [1], the target named is T1, recombinant human CXCL1 protein (human, UniProt P09341 35-107).
T1 sequence: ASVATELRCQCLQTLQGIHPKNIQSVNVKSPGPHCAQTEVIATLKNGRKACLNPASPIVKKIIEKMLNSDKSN
The test can be described thus: ELISA on coated human CXCL1 against coated BSA, scFv at 10 and 2 ug/mL, anti-Myc HRP, TMB. How it is done:
The human CxCL1 protein was coated onto 96-well, 30 ng for well at 4° C. overnight. The plate was blocked by 3% skim milk in PBS 2 h at room temperature. The plate was washed 3 times with PBST and applied anti-human CXCL1 humanized version scFv antibodies at different dilution concentration. The anti-Myc mouse monoclonal antibody with HRP conjugate antibody was applied and developed with TMB solution.
(In an ELISA, binding on a coated surface is turned into a signal by an enzyme label.)

The target in test [2] is T1, recombinant human CXCL1 protein. The test can be described thus: apparent affinity-binding constant, in serum 1:4 dilution; method not stated (FIG. 1B); serum, 1:4 dilution.
Test [3] has the same target. The test can be described thus: apparent affinity-binding constant, in PBS; method not stated (FIG. 1B); in PBS.
Test [4] shares this target. The test can be described thus: apparent affinity-binding constant, in serum 1:40 dilution; method not stated (FIG. 1B); serum, 1:40 dilution.
In the next test the target is T2, mouse CXCL1 (mouse, UniProt P12850 25-96, limits assumed).
T2 sequence (looked up): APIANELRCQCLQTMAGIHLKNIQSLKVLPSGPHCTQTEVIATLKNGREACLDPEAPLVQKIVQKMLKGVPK
The test can be described thus: Western blot: recombinant CXCL1 loaded at 10, 20 and 30 ng, probed with HL2401. On the technique in general: Immunoblotting shows a protein as a band on a membrane.

A further test deals with T3, rat CXCL1 (rat, UniProt P14095 25-96, limits assumed).
T3 sequence (looked up): T2 sequence (looked up) with I3V, M15V, L20F, L29M, S31P, L58M
Described as above.

Substitutions are numbered along the chain they refer to.

B1: HUM2401-ScFv_1 (humanized version 2) (scFv)
scFv: QVQLVESGGGLVQPGGSLRLSCKASGYTFTSYYIYWVRQAPGKGLEWIGEIDPSHGGPTFNEKFKNRFTISRDNSKNTLYLQMNSLRAEDTAVYYCTRESGTGAMDYWGQGTLVTVSSGGGGSGGGGSGGGARGGGGSDIQMTQSPSSLSASVGDRATISCKASQSVDYDGDSYVNWYQQKPGKAPKLLIYAASNLESGIPSRFSGSGSGTDFTLTISSLQPEDFATYYCQQSSEDPWTFGQGTKVEIKR
notes: Detected through a c-Myc tag; also called HumH2401scFv; Hum HL2401_scFv
As to B1, the binding result in test [1] was “binds”.

B2: anti-CXCL1 neutralizing monoclonal mouse antibody (HL2401) (antibody, V domains shown)
VH: EVKLVESGAELVKPGASVKLSCKASGYTFTSYYIYWVKQRPGQGLEWIGEIDPSHGGPTFNEKFKNKATLTVDKSSSTAYMQLSSLTSDDSAVYYCTRESGTGAMDYWGQGTTLTVSS
VL: DIVLTQSPASLAVSLGQRATISCKASQSVDYDGDSYVNWYQQKPGQPPKLLIYAASNLESRIPARFSGSGSGTDFTLNILPVEEDDGATYYCQQSSEDPWTFGGGTKLEIKR
notes: Mouse IgG from hybridoma clone HL2401, purified on protein G; also called CXCL1 mAb (HL2401); CXCL1 monoclonal antibody (HL2401)
As for B2, the Kd was 0.387 µg/mL in test [2], 0.176 µg/mL in test [3] and 0.252 µg/mL in test [4]. The binding result in the test with mouse CXCL1 and with rat CXCL1 was “no binding (tested: 30 ng)” throughout.
